The record followed here is US8361967B2, “Beta sheet inhibiting peptides for preventing and/or treating Alzheimer's Disease” (Tianjin Medical University, priority 2008, dated 2013).

No end group written: not given here.

The target of data set [1] is T1, Aβ1-42 peptide (Homo sapiens, UniProt P05067). Briefly: Electron microscopy of Aβ1-42 fibril formation. It is filed as biochemical. More on the design: Reagents: Aβ1-42 (purity >98%); purchased Sigma-Aldrich, Inc. The conditions noted are these: peptide 44.30 μmol/L with Aβ1-42 11.07 μmol/L, 37° C., 5 days; for length of formed Aβ fibrils: Aβ alone about 0.5 to 5 μm; for diameter of formed Aβ fibrils: Aβ alone about 8 to 10 nm. As to the method:
4. […] Samples of 5 μl were taken from each group, dropped onto a 300-mesh deionized copper mesh with carbon support film, and left to stand at room temperature for 15 min. The samples were negatively stained in dark by 2% uranyl acetate for 2 min. After drying, the samples were observed under a transmission electron microscope.

Data set [2] addresses T1, Aβ1-42 peptide. The conditions noted are these: for Inhibition (%) of Aβ aggregation / effect on Aβ1-42 aggregation and fibril formation (ThT, FIG. 2): Aβ1-42 11.07 μmol/L, test substance 44.30 μmol/L; for Inhibition (%) of Aβ aggregation / dose dependence of effect on Aβ fibril formation / effect on Aβ1-42 aggregation and fibril formation (ThT, FIG. 2) / most effective concentration for inhibition of Aβ fibril formation: 37° C. for 24 h; for Inhibition (%) of Aβ aggregation: Aβ1-42 alone = 100% fluorescence; for ThT fluorescence intensity over time vs Aβ1-42 alone: 44.30 μmol/L with Aβ1-42 11.07 μmol/L, 37° C., 12 h to 7 d; for dose dependence of effect on Aβ fibril formation / most effective concentration for inhibition of Aβ fibril formation: 10-100 μmol/L with Aβ1-42 11.07 μmol/L; for most effective concentration for inhibition of Aβ fibril formation: dose-effect. As to the method:
2. […] Each solution was incubated at 37° C. for 24 h, and 10 μl was taken out from each group and added into 990 μl of 3.0 μmol/L ThT phosphate buffer. ThT fluorescence intensity was measured at the excitation wavelength of 453 nm and emission wavelength of 478˜486 nm.
3. The dose-effect and time-effect relationships of the polypeptides of the invention on Aβ1-42: polypeptide H102 was formulated in PBS (as described above) to obtain a series of concentrations, and Aβ1-42 was added into the solutions to the concentration of 11.07 μmol/L. The resulted solutions were incubated at 37° C. for 24 hours, and samples were taken and measured for ThT fluorescence intensity, in order to determine the dose-effect relationship of the polypeptides of the invention on Aβ1-42. Solutions containing H102 of 44.30 μmol/L and Aβ1-42 of 11.07 μmol/L, or Vitamin E of 44.30 μmol/L and Aβ1-42 of 11.07 μmol/L, respectively, were incubated at 37° C. Samples were taken and measured for ThT fluorescence intensity at the time points of 12 hours (12 h), 1 day (1 d), 3 days (3 d), 5 days (5 d) and 7 days (7 d) after the incubation, in order to determine the time-effect relationships of various polypeptides on Aβ1-42.

Data set [3] has as its system APP 695 transgenic mice. Briefly: Congo Red staining of amyloid plaques in temporal cortex and hippocampus of APP 695 transgenic mice. It is filed as in vivo. To be noted: intracerebroventricular 3 μl of 40 μmol/L daily for 10 days. The source says: (§1) Experimental animals: thirty APP 695 transgenic mice of nine-month-old and ten C57BL/6J mice which are matched in genetic background and age, were all purchased from the experimental animal research center of Peking Union Medical College, Chinese Academy of Medical Sciences.
(§2) Animal grouping and model preparation: the thirty APP 695 transgenic mice were randomly divided into model group of 15 mice and the polypeptide-injected group of 15 mice. Ten C57BL/6J mice were used as a normal control group. For the polypeptide-injected group, the animals were received intracerebroventricular injection of 3 μl of saline solution containing H102 of 40 μmol/L each time. For the control group and model group, the animals were received intracerebroventricular injection of 3 μl of normal saline solution each time. The injection was carried out daily for 10 days. All animals were kept in the same conditions in SPF-grade mice room in the experimental animal research center of Tianjin Medical University
(§3) The animals were anaesthetized intraperitoneally by 10% chloral hydrate at a dose of 400 mg/Kg weight. The animals were fixed on a brain stereotaxic frame, and the hair was cut off. After disinfection with Anerdian, the skin was incised along the midline of the head for about 1 cm. The periosteum was stripped to expose the bone marks. […]

For data set [4], the system named is human neuroblastoma SH-SY5Y cells. The experiment in a line: Cytotoxicity test (MTT): viability of SH-SY5Y cells incubated with Aβ1-42. It is filed as cell-based. To be noted: 72 hours. As to the method:
5. Cytotoxicity test: a commonly-used cell line, human neuroblastoma SH-SY5Y, was used in the assay of cytotoxcity, which was purchased from Xuanwu Hospital of Capital Medical University and cultured in MEM medium (supplemented with 10% (v/v) fetal bovine serum) by conventional methods, in a 37° C., 5% CO2 incubator. The cell line was subcultured once every 5 days. When the SH-SY5Y cells grew stably in the logarithmic phase, the cells were inoculated into a 96 well plates (Costar) in a density of 1.0×10^4/ml, with 200 μl of medium added per well. After 24 hours, the medium was replaced by serum-free medium, and Aβ1-42 was added to the concentration of 5 μmol/L. The wells were divided into several groups. […] At 72 hours after the addition of the polypeptides, 20 μl of 3-(4,5-dimethyl-2-thiazolyl)-2,5-diphenyltetrazole bromide (MTT) (5 mg/ml) was added into each well, and the plate was incubated at 37° C. for 4 hours. Then the original culture medium was discarded, and 200 μl of DMSO was added into each well. The plate was left to stand for 10 min and then shaken for 1 min, allowing the Formazane particles to be completely dissolved. Then the optical density (OD) at 492 nm was measured on an automatic microplate reader.

Data set [5] relates to APP 695 transgenic mice. The experiment in a line: Immunohistochemical staining of hippocampal CA1 neurons (anti-APP N-terminal and anti-Aβ antibody) in APP 695 transgenic mice. It is filed as in vivo. The conditions noted are these: intracerebroventricular 3 μl of 40 μmol/L daily for 10 days.
Text: as §1, §2, §3

“Leu-Pro-Phe-Phe-Asp (LPFFD; printed: Leu-Pro-Phe-Phe-Asp) [L5, reference compound]”: in the data set with Aβ1-42 peptide [1], the “length of formed Aβ fibrils” value is recorded as 0.3 to 5 μm and the “diameter of formed Aβ fibrils” value lay in the range of 4 to 8 nm. For the same substance, in the data set with Aβ1-42 peptide [2], the “Inhibition (%) of Aβ aggregation” value worked out at 25.74%.
HKQLPFFEED [H102]: in the data set with Aβ1-42 peptide [1], the “length of formed Aβ fibrils” value is 0.3 to 3 μm and the “diameter of formed Aβ fibrils” value lay within 3 to 6 nm. For the same substance, the “amyloid plaques (Congo red) vs transgenic model group” value in the data set with APP 695 transgenic mice [3] is “much lower in the number and size”. Further, in data set [4] (10, 20 and 40 μmol/L with Aβ1-42 5 μmol/L), the “effect on viability of SH-SY5Y cells” value is “most effective to improve the viability of cells”. In addition, the “optimal concentration to improve the viability of cells” value in data set [4] (Aβ1-42 5 μmol/L) is 20 µmol/L. In the data set with Aβ1-42 peptide [2], the “T1/2, time point at which the fluorescence intensity reaches the half-peak” value is reported as “fourth day”; the “ThT fluorescence intensity over time vs Aβ1-42 alone” value was “significantly weaker at each time point”; the “dose dependence of effect on Aβ fibril formation” value was “dose-dependent”; the “effect on Aβ1-42 aggregation and fibril formation (ThT, FIG. 2)” value is recorded as “remarkably inhibit”. For the same substance, the “most effective concentration for inhibition of Aβ fibril formation” value in the data set with Aβ1-42 peptide [2] was “about 20 μmol/L”. Besides, the “amount of Aβ1-42 positive cells in brain CA1 area vs model group” value in the data set on APP 695 transgenic mice [5] was “much lower than that of the model group”.
Take Vitamin E: at Aβ1-42 peptide [2], the “T1/2, time point at which the fluorescence intensity reaches the half-peak” value was “fourth day”; the “ThT fluorescence intensity over time vs Aβ1-42 alone” value is listed as “significantly weaker at each time point”; the “dose dependence of effect on Aβ fibril formation” value is given as “dose-dependent”; the “effect on Aβ1-42 aggregation and fibril formation (ThT, FIG. 2)” value is “remarkably inhibit”. Besides, on Aβ1-42 peptide [2], the “Inhibition (%) of Aβ aggregation” value stood at 24.85% and the “most effective concentration for inhibition of Aβ fibril formation” value is recorded as “about 20 μmol/L”.
